{"source": "paper PMC7082059", "about": "(PLoS Pathogens, 2020)", "binders": {"B1": {"name": "Fab317 (Fab, V domains shown)", "VH": "QMQLVESGGGVVQPGRSLRLSCTASGFTFSTYAMHWVRQSPGQGLQWVAVISYHSTNKYYEDSVRGRFTISRDNSKNTLYLQMNSLRAEDTAVYYCARDGYSSSFFDFWGQGTLVTVSS", "VL": "DIQMTQSPSTLSASVGDRVAITCRASQSISRWLAWYQQQPGKAPKLLMSGASVLESGVPSRFSGSGSGTEFTLTISSLQPDDFATYYCQHYNSYFVTFGQGTKVEIK", "notes": "Fab heavy chain; in the cited structure of Fab317, PDB 6AXL; Fab light chain; NANP-only antibody used for comparison; source: purified"}, "B2": {"name": "Fab317 (Fab, V domains shown)", "VH": "B1 VH", "VL": "B1 VL", "notes": "heavy chain of Fab317 in the cited crystal structure PDB 6AXL; light chain of Fab317 in the cited crystal structure PDB 6AXL; also called mAb317 (as IgG)"}, "B3": {"name": "Fab668 (Fab, V domains shown)", "VH": "QVQLVQSGAEVKKPGASVKVSCKASGFTFTDYAMHWVRQAPGQRLEWMGWINAGNGYTKYSQKFQDRLTITRDTFASTVYMELSSLRSEDTTVYYCARDGFCPSNTCSGYYGMDVWGQGTTVTVSS", "VL": "QSALTQPASVSGSPGQSITISCTGTSSDVGSYNYVSWYQQHPGKAPKLMIYDVNTRPSGVSIRFSASKSGNTASLTVSGLQAEDEAVYYCSSYAGSSTWVFGGGTKLTVL", "notes": "Fab heavy chain; germline VH1-3*01; CDR H3 of 17 residues with a disulfide between Cys98 and Cys100C; lambda light chain; germline Vλ2-23*02; source: purified"}, "B4": {"name": "Fab668 (Fab, V domains shown)", "VH": "B3 VH", "VL": "B3 VL", "notes": "Germline genes VH1-3*01 and Vlambda2-23*02; CDR H3 of 17 residues; also called mAb668 (as IgG)"}, "B5": {"name": "Fab667 (Fab, V domains shown)", "VH": "QVQLVQSGAEVKKPGASVKVSCRASGYTFTNYAMHWVRQAPGQRLEWMGWINAGNGYTKYSQKFQDRVTITRDTSATTAYMELSSLRSEDTAMYYCARDSFYDILSGPVYHYYGMDVWGQGTTVTVSS", "VL": "QSALTQPDSVSGSPGQSITISCTGTSNDVGIYNHVSWYQQHPGKAPKLMIYDVNKRPSGISNRFSGSKSGDTASLTISGLQAEDEADYYCCSYAGSSAWVFGGGTKLTVL", "notes": "Fab heavy chain; germline VH1-3*01; CDR H3 of 19 residues; lambda light chain; germline Vλ2-23*02; source: purified"}, "B6": {"name": "Fab667 (Fab, V domains shown)", "VH": "B5 VH", "VL": "B5 VL", "notes": "Germline genes VH1-3*01 and Vlambda2-23*02; CDR H3 of 19 residues; also called mAb667 (as IgG)"}}, "details_in_all_cases": "both partners purified", "key": {"[1]": {"biological_target": "T1, Biotin-linker-NPNANPNANPNANPNA-NH2 (NPNA)4 (Plasmodium falciparum, reading uncertain; also: biotin-linker structure not given here, printed as Biotin-linker-NPNANPNANPNANPNA-NH2 (NPNA)4)", "T1 construct": "four NPNA repeats of the central NANP repeat region of the Plasmodium falciparum circumsporozoite protein (PfCSP); The linker between biotin and peptide is not described; also called NANP peptide; called (NPNA)3 in the results on BLI; source: synthetic peptide, bought: Innopep Inc", "T1 chain": "{Biotin-linker}-NPNANPNANPNANPNA-NH2", "assay": "BLI; biotinylated peptide captured on streptavidin sensors, dipped into serial dilutions of Fab in Kinetics buffer (Dulbecco's PBS, 0.002% Tween20, 0.01% BSA), 25 °C, Octet Red"}, "[2]": {"biological_target": "T2, Biotin-linker-KQPADGNPDPNANPNV-NH2 (Junc) (Plasmodium falciparum, reading uncertain; also: biotin-linker structure not given here, printed as Biotin-linker-KQPADGNPDPNANPNV-NH2 (Junc))", "T2 construct": "junctional region of the Plasmodium falciparum circumsporozoite protein (PfCSP), end of the N-terminal domain and first repeats; numbers count on: the peptide (K1-V16); The linker between biotin and peptide is not described; also called junctional peptide; source: synthetic peptide, bought: Innopep Inc", "T2 chain": "{Biotin-linker}-KQPADGNPDPNANPNV-NH2", "assay": "BLI; biotinylated peptide captured on streptavidin sensors, dipped into serial dilutions of Fab in Kinetics buffer (Dulbecco's PBS, 0.002% Tween20, 0.01% BSA), 25 °C, Octet Red"}, "[3]": {"biological_target": "T3, Biotin-linker-KQPADGNPDPNANPNV-NH2 (Junc) (Plasmodium falciparum, reading uncertain; also: biotin-linker structure not given here, printed as Biotin-linker-KQPADGNPDPNANPNV-NH2 (Junc))", "T3 construct": "junctional region between the N-terminal domain and the central repeats of Plasmodium falciparum circumsporozoite protein (PfCSP); also called junctional peptide; source: synthetic peptide, ordered from Innopep Inc", "T3 chain": "{Biotin-linker}-KQPADGNPDPNANPNV-NH2", "assay": "BLI; Octet Red; biotinylated peptide (10 ug/mL) captured on streptavidin sensors, dipped into serial dilutions of Fab in Kinetics buffer (Dulbecco's PBS, 0.002% Tween20, 0.01% BSA); 25 C; Fab667-Junc fitted to a biphasic binding model; errors are fitting errors"}, "[4]": {"biological_target": "T4, Biotin-linker-NPNANPNANPNANPNA-NH2 (NPNA)4 (Plasmodium falciparum, reading uncertain; also: biotin-linker structure not given here, printed as Biotin-linker-NPNANPNANPNANPNA-NH2 (NPNA)4)", "T4 construct": "four NPNA repeats of the central repeat region of Plasmodium falciparum circumsporozoite protein (PfCSP); also called NANP peptide; source: synthetic peptide, ordered from Innopep Inc", "T4 chain": "{Biotin-linker}-NPNANPNANPNANPNA-NH2", "assay": "BLI; Octet Red; biotinylated peptide (10 ug/mL) captured on streptavidin sensors, dipped into serial dilutions of Fab in Kinetics buffer (Dulbecco's PBS, 0.002% Tween20, 0.01% BSA); 25 C; Fab667-Junc fitted to a biphasic binding model; errors are fitting errors"}, "[5]": {"biological_target": "T5, Ac-KQPADGNPDPNANP-NH2 (Junc) (Plasmodium falciparum 3D7)", "T5 construct": "junctional region of the Plasmodium falciparum circumsporozoite protein (PfCSP); numbers count on: the peptide (K1-P14); also called junctional peptide for crystallography; source: synthetic peptide, bought: Innopep Inc., 98% purity", "T5 chain": "Ac-KQPADGNPDPNANP-NH2", "assay": "crystal structure; Fab at 11 mg/mL in TBS with a 5:1 molar ratio of peptide to Fab, crystals grown at 293 K"}, "[6]": {"biological_target": "T6, Ac-NPNANPNANPNA-NH2 [(NPNA)3] (Plasmodium falciparum 3D7)", "T6 construct": "three NPNA repeats of the central NANP repeat region of the Plasmodium falciparum circumsporozoite protein (PfCSP); numbers count on: the peptide (N1-A12); also called (NPNA)3 peptide; source: synthetic peptide, bought: Innopep Inc., 98% purity", "T6 chain": "Ac-NPNANPNANPNA-NH2", "assay": "crystal structure; Fab at 11 mg/mL in TBS with a 5:1 molar ratio of peptide to Fab, crystals grown at 293 K"}}, "note": "*: point of attachment. Biotin = O=C1N[C@H]2[C@H](CS[C@H]2CCCCC(=O)*)N1; linker = not defined here"}
{"binder": "B1", "values": [{"measurement": "Kd", "setting": "[1]", "value": 25, "unit": "nM"}, {"measurement": "binding result", "setting": "[2]", "value": "no binding (tested: 8000 nM)"}]}
{"binder": "B2", "values": [{"measurement": "binding result", "setting": "[3]", "value": "no binding (tested: 8000 nM)"}, {"measurement": "koff", "setting": "[4]", "value": 0.00146, "unit": "s⁻¹"}, {"measurement": "kon", "setting": "[4]", "value": 58400, "unit": "M⁻¹ s⁻¹"}]}
{"binder": "B3", "values": [{"measurement": "Kd", "setting": "[1]", "value": 56, "unit": "nM"}, {"measurement": "Kd", "setting": "[2]", "value": 206, "unit": "nM"}, {"measurement": "binding result", "setting": "[5]", "value": "binds"}]}
{"binder": "B4", "values": [{"measurement": "koff", "setting": "[3]", "value": 0.00424, "unit": "s⁻¹"}, {"measurement": "kon", "setting": "[3]", "value": 20600, "unit": "M⁻¹ s⁻¹"}, {"measurement": "Kd", "setting": "[4]", "value": 55.6, "unit": "nM"}, {"measurement": "koff", "setting": "[4]", "value": 0.00179, "unit": "s⁻¹"}, {"measurement": "kon", "setting": "[4]", "value": 32200, "unit": "M⁻¹ s⁻¹"}]}
{"binder": "B5", "values": [{"measurement": "Kd", "setting": "[1]", "value": 170, "unit": "nM"}, {"measurement": "binding result", "setting": "[6]", "value": "binds"}]}
{"binder": "B6", "values": [{"measurement": "Kd", "setting": "[4]", "value": 176, "unit": "nM"}, {"measurement": "koff", "setting": "[4]", "value": 0.00429, "unit": "s⁻¹"}, {"measurement": "kon", "setting": "[4]", "value": 24400, "unit": "M⁻¹ s⁻¹"}]}
